Measured values: patent US20160355587A1 (CYTOMX THERAPEUTICS, published 2016)

T1: human CD166 protein (human, UniProt Q13740 28-526, limits assumed)
T1 construct: Isolated human CD166 protein coated on ELISA plates; also called ALCAM
T1 sequence (looked up): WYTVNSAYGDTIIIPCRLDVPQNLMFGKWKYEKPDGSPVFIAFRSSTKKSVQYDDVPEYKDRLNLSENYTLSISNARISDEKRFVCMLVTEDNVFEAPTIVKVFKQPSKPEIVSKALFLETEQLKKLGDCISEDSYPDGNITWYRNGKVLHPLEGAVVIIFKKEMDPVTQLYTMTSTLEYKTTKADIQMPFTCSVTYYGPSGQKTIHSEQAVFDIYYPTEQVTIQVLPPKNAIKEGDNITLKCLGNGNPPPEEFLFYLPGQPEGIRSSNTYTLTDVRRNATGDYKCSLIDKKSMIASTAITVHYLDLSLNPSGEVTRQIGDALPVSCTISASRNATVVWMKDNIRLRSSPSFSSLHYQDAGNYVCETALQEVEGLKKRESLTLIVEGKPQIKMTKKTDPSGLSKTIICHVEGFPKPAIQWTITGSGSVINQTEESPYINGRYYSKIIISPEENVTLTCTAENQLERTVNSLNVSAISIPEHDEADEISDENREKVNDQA


Assays:
human CD166 protein [1] = biological target: T1, human CD166 protein; experiment: ELISA, human CD166 protein coated; apparent Kd
human CD166 protein [2] = biological target: T1, human CD166 protein; experiment: ELISA; relative to parental CD166 M9 vk1/HcB
human CD166 protein [3] = biological target: T1, human CD166 protein; experiment: ELISA, human CD166 protein coated, anti-human FAB-peroxidase

Binder | Kd (human CD166 protein [1]) | Fold Increase in Kd (human CD166 protein [2]) | binding result (human CD166 protein [3])
CD166-16522-2001 (antibody) chain 1: QITLKESGPTLVKPTQTLTLTCTFSGFSLSTYGMGVGWIRQPPGKALEWLANIWWSEDKHYSPSLKSRLTITKDTSKNQVVLTMTNMDPVDTATYYCVQIDYGNDYAFTYWGQGTLVTVSS chain 2: QGQSGQGLEGWCLHPLCLWGAGGGGSSGGSISSGLLSGRSDNHGGGSDIVMTQSPLSLPVTPGEPASISCRSSKSLLHSNGITYLYWYLQKPGQSPQLLIYQMSNLASGVPDRFSGSGSGTDFTLKISRVEAEDVGVYYCAQNLELPYTFGQGTKLEIK | 424 nM | 95 fold | 
CD166-7614.9-2001 (antibody) chain 1: QITLKESGPTLVKPTQTLTLTCTFSGFSLSTYGMGVGWIRQPPGKALEWLANIWWSEDKHYSPSLKSRLTITKDTSKNQVVLTMTNMDPVDTATYYCVQIDYGNDYAFTYWGQGTLVTVSS chain 2: QGQSGQGLCHPLVLSAAESCSSGGGSSGGSISSGLLSGRSDNHGGGSDIVMTQSPLSLPVTPGEPASISCRSSKSLLHSNGITYLYWYLQKPGQSPQLLIYQMSNLASGVPDRFSGSGSGTDFTLKISRVEAEDVGVYYCAQNLELPYTFGQGTKLEIK | 534 nM | 120 fold | 
CD166-16522.16-2001 (antibody) chain 1: QITLKESGPTLVKPTQTLTLTCTFSGFSLSTYGMGVGWIRQPPGKALEWLANIWWSEDKHYSPSLKSRLTITKDTSKNQVVLTMTNMDPVDTATYYCVQIDYGNDYAFTYWGQGTLVTVSS chain 2: QGQSGQGLEGWCLAPLCLWGAGGGGSSGGSISSGLLSGRSDNHGGGSDIVMTQSPLSLPVTPGEPASISCRSSKSLLHSNGITYLYWYLQKPGQSPQLLIYQMSNLASGVPDRFSGSGSGTDFTLKISRVEAEDVGVYYCAQNLELPYTFGQGTKLEIK | 47.4 nM | 11 fold | 
CD166-7614.13-2001 (antibody) chain 1: QITLKESGPTLVKPTQTLTLTCTFSGFSLSTYGMGVGWIRQPPGKALEWLANIWWSEDKHYSPSLKSRLTITKDTSKNQVVLTMTNMDPVDTATYYCVQIDYGNDYAFTYWGQGTLVTVSS chain 2: QGQSGQGHPLGGGSSGGSISSGLLSGRSDNHGGGSDIVMTQSPLSLPVTPGEPASISCRSSKSLLHSNGITYLYWYLQKPGQSPQLLIYQMSNLASGVPDRFSGSGSGTDFTLKISRVEAEDVGVYYCAQNLELPYTFGQGTKLEIK | 77.7 nM | 18 fold | 
CD166-16522.17-2001 (antibody) chain 1: QITLKESGPTLVKPTQTLTLTCTFSGFSLSTYGMGVGWIRQPPGKALEWLANIWWSEDKHYSPSLKSRLTITKDTSKNQVVLTMTNMDPVDTATYYCVQIDYGNDYAFTYWGQGTLVTVSS chain 2: QGQSGQGLEGWCLHALCLWGAGGGGSSGGSISSGLLSGRSDNHGGGSDIVMTQSPLSLPVTPGEPASISCRSSKSLLHSNGITYLYWYLQKPGQSPQLLIYQMSNLASGVPDRFSGSGSGTDFTLKISRVEAEDVGVYYCAQNLELPYTFGQGTKLEIK | 61.6 nM | 14 fold | 
CD166-16522.15-2001 (antibody) chain 1: QITLKESGPTLVKPTQTLTLTCTFSGFSLSTYGMGVGWIRQPPGKALEWLANIWWSEDKHYSPSLKSRLTITKDTSKNQVVLTMTNMDPVDTATYYCVQIDYGNDYAFTYWGQGTLVTVSS chain 2: QGQSGQGLEGWCAHPLCLWGAGGGGSSGGSISSGLLSGRSDNHGGGSDIVMTQSPLSLPVTPGEPASISCRSSKSLLHSNGITYLYWYLQKPGQSPQLLIYQMSNLASGVPDRFSGSGSGTDFTLKISRVEAEDVGVYYCAQNLELPYTFGQGTKLEIK | 448 nM | 101 fold | 
CD166-7614.5-2001 (antibody) chain 1: QITLKESGPTLVKPTQTLTLTCTFSGFSLSTYGMGVGWIRQPPGKALEWLANIWWSEDKHYSPSLKSRLTITKDTSKNQVVLTMTNMDPVDTATYYCVQIDYGNDYAFTYWGQGTLVTVSS chain 2: QGQSGQGLCHALVLSAWESCSSGGGSSGGSISSGLLSGRSDNHGGGSDIVMTQSPLSLPVTPGEPASISCRSSKSLLHSNGITYLYWYLQKPGQSPQLLIYQMSNLASGVPDRFSGSGSGTDFTLKISRVEAEDVGVYYCAQNLELPYTFGQGTKLEIK | 495 nM | 112 fold | 
CD166-7614.11-2001 (antibody) chain 1: QITLKESGPTLVKPTQTLTLTCTFSGFSLSTYGMGVGWIRQPPGKALEWLANIWWSEDKHYSPSLKSRLTITKDTSKNQVVLTMTNMDPVDTATYYCVQIDYGNDYAFTYWGQGTLVTVSS chain 2: QGQSGQGCHPLVLSAWESCGGGSSGGSISSGLLSGRSDNHGGGSDIVMTQSPLSLPVTPGEPASISCRSSKSLLHSNGITYLYWYLQKPGQSPQLLIYQMSNLASGVPDRFSGSGSGTDFTLKISRVEAEDVGVYYCAQNLELPYTFGQGTKLEIK | 544 nM | 123 fold | 
CD166-M9_vK3a/HcC (antibody, V domains shown, Humanized M9) VH: QITLKESGPTLVKPTQTLTLTCTFSGFSLSTYGMGVGWIRQPPGKALEWLANIWWSEDKHYSPSLKSRLTITKDTSKNQVVLTITNVDPVDTATYYCVQIDYGNDYAFTYWGQGTLVTVSS VL: DIVMTQSPLSLPVTPGEPASISCRSSQSLLHSNGITYLYWYLQKPGQSPQLLIYQMSNRASGVPDRFSGSGSGTDFTLKISRVEAEDVGVYYCAQNLELPYTFGQGTKLEIK |  |  | binds
CD166-M9_vk3a/HcB (antibody, V domains shown, Humanized M9) VH: QITLKESGPTLVKPTQTLTLTCTFSGFSLSTYGMGVGWIRQPPGKALEWLANIWWSEDKHYSPSLKSRLTITKDTSKNQVVLTMTNMDPVDTATYYCVQIDYGNDYAFTYWGQGTLVTVSS VL: DIVMTQSPLSLPVTPGEPASISCRSSQSLLHSNGITYLYWYLQKPGQSPQLLIYQMSNRASGVPDRFSGSGSGTDFTLKISRVEAEDVGVYYCAQNLELPYTFGQGTKLEIK |  |  | binds

Now from value to binder:

Kd (human CD166 protein [1]) | Fold Increase in Kd (human CD166 protein [2]) | binding result (human CD166 protein [3]) | Binder
619 nM | 139 fold |  | CD166-7614.7-2001 (antibody) chain 1: QITLKESGPTLVKPTQTLTLTCTFSGFSLSTYGMGVGWIRQPPGKALEWLANIWWSEDKHYSPSLKSRLTITKDTSKNQVVLTMTNMDPVDTATYYCVQIDYGNDYAFTYWGQGTLVTVSS chain 2: QGQSGQGLCHPLALSAWESCSSGGGSSGGSISSGLLSGRSDNHGGGSDIVMTQSPLSLPVTPGEPASISCRSSKSLLHSNGITYLYWYLQKPGQSPQLLIYQMSNLASGVPDRFSGSGSGTDFTLKISRVEAEDVGVYYCAQNLELPYTFGQGTKLEIK
332 nM | 75 fold |  | CD166-7614.12-2001 (antibody) chain 1: QITLKESGPTLVKPTQTLTLTCTFSGFSLSTYGMGVGWIRQPPGKALEWLANIWWSEDKHYSPSLKSRLTITKDTSKNQVVLTMTNMDPVDTATYYCVQIDYGNDYAFTYWGQGTLVTVSS chain 2: QGQSGQGHPLVLGGGSSGGSISSGLLSGRSDNHGGGSDIVMTQSPLSLPVTPGEPASISCRSSKSLLHSNGITYLYWYLQKPGQSPQLLIYQMSNLASGVPDRFSGSGSGTDFTLKISRVEAEDVGVYYCAQNLELPYTFGQGTKLEIK
422 nM | 95 fold |  | CD166-16522.14-2001 (antibody) chain 1: QITLKESGPTLVKPTQTLTLTCTFSGFSLSTYGMGVGWIRQPPGKALEWLANIWWSEDKHYSPSLKSRLTITKDTSKNQVVLTMTNMDPVDTATYYCVQIDYGNDYAFTYWGQGTLVTVSS chain 2: QGQSGQGLEGACLHPLCLWGAGGGGSSGGSISSGLLSGRSDNHGGGSDIVMTQSPLSLPVTPGEPASISCRSSKSLLHSNGITYLYWYLQKPGQSPQLLIYQMSNLASGVPDRFSGSGSGTDFTLKISRVEAEDVGVYYCAQNLELPYTFGQGTKLEIK
685 nM | 154 fold |  | CD166-7614.10-2001 (antibody) chain 1: QITLKESGPTLVKPTQTLTLTCTFSGFSLSTYGMGVGWIRQPPGKALEWLANIWWSEDKHYSPSLKSRLTITKDTSKNQVVLTMTNMDPVDTATYYCVQIDYGNDYAFTYWGQGTLVTVSS chain 2: QGQSGQGLCHPLVLSAWASCSSGGGSSGGSISSGLLSGRSDNHGGGSDIVMTQSPLSLPVTPGEPASISCRSSKSLLHSNGITYLYWYLQKPGQSPQLLIYQMSNLASGVPDRFSGSGSGTDFTLKISRVEAEDVGVYYCAQNLELPYTFGQGTKLEIK
 |  | binds | CD166-M9_vK2/HcC (antibody, V domains shown, Humanized M9) VH: QITLKESGPTLVKPTQTLTLTCTFSGFSLSTYGMGVGWIRQPPGKALEWLANIWWSEDKHYSPSLKSRLTITKDTSKNQVVLTITNVDPVDTATYYCVQIDYGNDYAFTYWGQGTLVTVSS VL: DIVMTQSPLSLPVTPGEPASISCRSSKSLLHSNGITYLYWYLQKPGQSPQLLIYQMSNLASGVPDRFSSSGSGTDFTLKISRVEAEDVGVYYCAQNLELPYTFGQGTKLEIK
 |  | binds | CD166-M9_vK3b/HcB (antibody, V domains shown, Humanized M9) VH: QITLKESGPTLVKPTQTLTLTCTFSGFSLSTYGMGVGWIRQPPGKALEWLANIWWSEDKHYSPSLKSRLTITKDTSKNQVVLTMTNMDPVDTATYYCVQIDYGNDYAFTYWGQGTLVTVSS VL: DIVMTQSPLSLPVTPGEPASISCRSSQSLLHSNGITYLYWYLQKPGQSPQLLIYQMSNRASGVPDRFSSSGSGTDFTLKISRVEAEDVGVYYCAQNLELPYTFGQGTKLEIK
 |  | binds | CD166-M9_vK3b/HcC (antibody, V domains shown, Humanized M9) VH: QITLKESGPTLVKPTQTLTLTCTFSGFSLSTYGMGVGWIRQPPGKALEWLANIWWSEDKHYSPSLKSRLTITKDTSKNQVVLTITNVDPVDTATYYCVQIDYGNDYAFTYWGQGTLVTVSS VL: DIVMTQSPLSLPVTPGEPASISCRSSQSLLHSNGITYLYWYLQKPGQSPQLLIYQMSNRASGVPDRFSSSGSGTDFTLKISRVEAEDVGVYYCAQNLELPYTFGQGTKLEIK
